Results taken from patent US20150259426A1 (Novartis, published 2015).
Blank lines part the entries; values can stand above or below the binder they belong to.

Key:
[1] = target: cynomolgus DR5-Fc fusion protein (cyno DR5 amino acids 56 to 213 fused with human IgG1 Fc) (cynomolgus; human); test: SPR (Biacore), CM5 chip coated with cynomolgus DR5-Fc, 1 to 100 nM NB construct
[2] = target: T1, cell-bound human DR5 (Colo205 and other human cell lines) (human, UniProt O14763 56-440); test: cell-based or functional assay
[3] = target: T2, OX40 extracellular domain (TNFRSF4, Gly33-Gly212) (UniProt P43489 33-212); test: ELISA, receptor ECD from E. coli lysate on His capture plate;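 also: binding specificity screen across TNF receptor superfamily ectodomains, anti-V5 detection as expression reference, primary antibody incubation 1 h at room temperature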
T2 construct: ECD cloned into pBadThioTopo; E. coli lysate on His capture plates
T2 sequence (looked up): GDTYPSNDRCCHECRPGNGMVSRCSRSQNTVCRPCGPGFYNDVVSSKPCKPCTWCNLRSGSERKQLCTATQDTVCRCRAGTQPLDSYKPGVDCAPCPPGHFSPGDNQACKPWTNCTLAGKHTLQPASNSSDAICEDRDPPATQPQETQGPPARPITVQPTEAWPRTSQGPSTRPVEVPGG

[4] = target: T3, TNFR3 extracellular domain (TNFRSF3, Pro30-Thr224) (UniProt P36941 30-224); test: as above
T3 construct: range 30-224; ECD cloned into pBadThioTopo; E. coli lysate on His capture plates
T3 sequence (P36941 30-224 limits assumed): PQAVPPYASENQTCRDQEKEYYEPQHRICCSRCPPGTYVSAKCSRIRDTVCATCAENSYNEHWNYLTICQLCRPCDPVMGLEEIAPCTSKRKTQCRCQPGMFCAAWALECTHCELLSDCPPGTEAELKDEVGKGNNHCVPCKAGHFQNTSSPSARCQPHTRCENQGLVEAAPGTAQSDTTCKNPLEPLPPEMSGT

[5] = target: T4, FAS extracellular domain (TNFRSF6, Ser20-Gly175) (UniProt P25445 20-175); test: as above
T4 construct: ECD cloned into pBadThioTopo; E. coli lysate on His capture plates
T4 sequence (looked up): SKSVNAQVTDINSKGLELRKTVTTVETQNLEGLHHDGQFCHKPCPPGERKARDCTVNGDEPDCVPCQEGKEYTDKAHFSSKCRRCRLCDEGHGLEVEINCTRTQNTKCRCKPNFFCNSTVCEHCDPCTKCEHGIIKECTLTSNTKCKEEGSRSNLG

[6] = target: T5, OPG (TNFRSF11B, Lys17-Ile197) (UniProt O00300 17-197); test: as above
T5 construct: range 17-197; ECD cloned into pBadThioTopo; E. coli lysate on His capture plates
T5 sequence (looked up): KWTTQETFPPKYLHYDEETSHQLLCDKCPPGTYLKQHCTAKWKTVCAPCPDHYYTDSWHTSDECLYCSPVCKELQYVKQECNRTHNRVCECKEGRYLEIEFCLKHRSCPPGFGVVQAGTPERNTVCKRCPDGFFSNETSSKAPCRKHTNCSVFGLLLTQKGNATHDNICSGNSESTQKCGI

[7] = target: T6, CD137 extracellular domain (TNFRSF9, Glu19-Ile188) (UniProt Q07011 19-188); test: as above
T6 construct: range 19-188; ECD cloned into pBadThioTopo; E. coli lysate on His capture plates
T6 sequence (Q07011 19-188 limits assumed): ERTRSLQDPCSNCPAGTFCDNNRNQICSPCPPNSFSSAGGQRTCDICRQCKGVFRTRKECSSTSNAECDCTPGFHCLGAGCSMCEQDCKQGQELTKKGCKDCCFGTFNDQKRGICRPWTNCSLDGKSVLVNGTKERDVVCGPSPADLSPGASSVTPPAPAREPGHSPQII

[8] = target: T7, TNFR1 extracellular domain (TNFRSF1A, Leu34-Thr211) (UniProt P19438 34-211); test: as above
T7 construct: range 34-211; ECD cloned into pBadThioTopo; E. coli lysate on His capture plates
T7 sequence (looked up): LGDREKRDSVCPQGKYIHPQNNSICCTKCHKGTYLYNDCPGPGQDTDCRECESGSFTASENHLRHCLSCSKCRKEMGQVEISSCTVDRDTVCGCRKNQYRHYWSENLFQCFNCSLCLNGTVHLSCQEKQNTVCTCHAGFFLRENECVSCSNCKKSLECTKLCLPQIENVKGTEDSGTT

[9] = target: T8, DcR2 extracellular domain (TNFRSF10D, Thr57-Thr198) (UniProt Q9UBN6 57-198); test: as above
T8 construct: range 57-198; ECD cloned into pBadThioTopo; E. coli lysate on His capture plates
T8 sequence (looked up): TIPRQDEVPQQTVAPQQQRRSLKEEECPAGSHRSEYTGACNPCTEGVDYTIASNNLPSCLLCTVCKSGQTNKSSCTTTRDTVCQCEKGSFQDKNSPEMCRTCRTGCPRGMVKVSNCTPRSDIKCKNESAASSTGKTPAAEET

[10] = target: T9, BAFFR extracellular domain (TNFRSF13C, Met1-Gly64) (UniProt Q96RJ3 1-64); test: as above
T9 construct: range 1-64; ECD cloned into pBadThioTopo; E. coli lysate on His capture plates
T9 sequence (Q96RJ3 1-64 limits assumed): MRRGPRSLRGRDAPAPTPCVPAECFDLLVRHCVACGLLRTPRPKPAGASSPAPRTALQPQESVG

[11] = target: T10, CD27 extracellular domain (TNFRSF7, Thr21-Ser187) (UniProt P26842 21-187); test: as above
T10 construct: range 21-187; ECD cloned into pBadThioTopo; E. coli lysate on His capture plates
T10 sequence (P26842 21-187 limits assumed): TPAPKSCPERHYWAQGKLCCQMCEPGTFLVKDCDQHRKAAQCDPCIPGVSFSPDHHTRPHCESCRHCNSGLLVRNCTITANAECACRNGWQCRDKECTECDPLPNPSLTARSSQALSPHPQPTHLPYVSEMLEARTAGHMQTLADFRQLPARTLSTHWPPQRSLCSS

[12] = target: T11, CD40 extracellular domain (TNFRSF5, Val18-Leu192) (UniProt P25942 18-192); test: as above
T11 construct: range 18-192; ECD cloned into pBadThioTopo; E. coli lysate on His capture plates
T11 sequence (P25942 18-192 limits assumed): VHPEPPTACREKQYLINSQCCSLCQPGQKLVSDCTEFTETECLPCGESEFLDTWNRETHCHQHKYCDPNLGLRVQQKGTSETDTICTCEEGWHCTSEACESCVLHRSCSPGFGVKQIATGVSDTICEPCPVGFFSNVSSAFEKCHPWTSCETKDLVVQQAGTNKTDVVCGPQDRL

[13] = target: T12, DcR3 (TNFRSF6B, Val27-Ala176) (UniProt O95407 27-176); test: as above
T12 construct: range 27-176; ECD cloned into pBadThioTopo; E. coli lysate on His capture plates
T12 sequence (looked up): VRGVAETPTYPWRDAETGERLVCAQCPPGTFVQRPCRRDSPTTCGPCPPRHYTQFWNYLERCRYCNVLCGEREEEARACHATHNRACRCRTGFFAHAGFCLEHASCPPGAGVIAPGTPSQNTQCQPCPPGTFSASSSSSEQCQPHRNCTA

hGITR = target: T13, hGITR (human, UniProt Q9Y5U5); test: as above
T13 construct: extracellular domain, E. coli lysate captured on a His capture plate; Target named only on the sheet; the construct is not described in the text
T13 sequence (extracellular domain, looked up): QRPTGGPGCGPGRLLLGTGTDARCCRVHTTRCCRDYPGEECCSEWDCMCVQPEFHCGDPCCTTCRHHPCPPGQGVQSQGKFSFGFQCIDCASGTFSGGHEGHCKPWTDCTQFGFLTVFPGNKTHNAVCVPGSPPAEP

[14] = target: T1, cell-bound human DR5 (Colo205 and other …); test: cell-based or functional assay; remark: listed apart in the source

Kd [1]: < 0.6 nM
binding result [3]: no binding (tested: not stated)
binding result [4]: no binding (tested: not stated)
binding result [5]: no binding (tested: not stated)
binding result [6]: no binding (tested: not stated)
binding result [7]: no binding (tested: not stated)
binding result [8]: no binding (tested: not stated)
binding result [9]: no binding (tested: not stated)
binding result [10]: no binding (tested: not stated)
binding result [11]: no binding (tested: not stated)
binding result [12]: no binding (tested: not stated)
binding result [13]: no binding (tested: not stated)
binding result (hGITR): no binding (tested: not stated)
B1: 10F1 tri (trivalent anti-DR5 NB construct) (VHH, not shown: small tags and cut ends)
chain: EVQLVESGGGLVQPGGSLRLSCAASGFTFSRYWMYWVRQAPGKGLEWVSAINSGGGDTYYRDSVRGRFTISRDNFKNTLYLQMNSLKSEDTAVYYCAKAEGPPTFSLIRTMTVDPGAQGTQVTVSSGGGGSGGGGSGGGGSGGGGSGGGGSGGGGSGGGGSEVQLVESGGGLVQPGGSLRLSCAASGFTFSRYWMYWVRQAPGKGLEWVSAINSGGGDTYYRDSVRGRFTISRDNFKNTLYLQMNSLKSEDTAVYYCAKAEGPPTFSLIRTMTVDPGAQGTQVTVSSGGGGSGGGGSGGGGSGGGGSGGGGSGGGGSGGGGSEVQLVESGGGLVQPGGSLRLSCAASGFTFSRYWMYWVRQAPGKGLEWVSAINSGGGDTYYRDSVRGRFTISRDNFKNTLYLQMNSLKSEDTAVYYCAKAEGPPTFSLIRTMTVDPGAQGTQVTVSS
IC50, cell survival, A549 [2]: ≥ 20 nM
IC50, cell survival, ARPE-19 [2]: ≥ 20 nM
IC50, cell survival, H226 [2]: 0.02 nM
IC50, cell survival, H2052 [2]: 0.013 nM
IC50, cell survival, H2122 [2]: 0.003 nM
IC50, cell survival, Huvec [2]: ≥ 20 nM
IC50, cell survival, IMR-90 [2]: ≥ 20 nM
IC50, cell survival, Jurkat [2]: ≥ 20 nM
IC50, cell survival, M30 [2]: ≥ 20 nM
IC50, cell survival, MiaPaCa-2 [2]: ≥ 20 nM
IC50, cell survival, Molt4 [2]: ≥ 20 nM
IC50, cell survival, Panc-1 [2]: ≥ 20 nM
IC50, cell survival, Colo205 [14]: 0.0407 nM

Kd [1]: < 0.09 nM
binding result [3]: no binding (tested: not stated)
binding result [4]: no binding (tested: not stated)
binding result [5]: no binding (tested: not stated)
binding result [6]: no binding (tested: not stated)
binding result [7]: no binding (tested: not stated)
binding result [8]: no binding (tested: not stated)
binding result [9]: no binding (tested: not stated)
binding result [10]: no binding (tested: not stated)
binding result [11]: no binding (tested: not stated)
binding result [12]: no binding (tested: not stated)
binding result [13]: no binding (tested: not stated)
binding result (hGITR): no binding (tested: not stated)
B2: 4E6 tri (trivalent anti-DR5 NB construct) (VHH)
chain: EVQLVESGGGSVQAGDSLRLSCAASGRTFGSIRVGWFRQTPGKEREFVAAINRNDGTTYYADSVKGRFTISRDNAKNTVYMQMASLKPEDTAVYYCAAGLQYNRSADRVPVGAVYWGQGTQVTVSSGGGGSGGGGSGGGGSGGGGSGGGGSGGGGSGGGGSEVQLVESGGGSVQAGDSLRLSCAASGRTFGSIRVGWFRQTPGKEREFVAAINRNDGTTYYADSVKGRFTISRDNAKNTVYMQMASLKPEDTAVYYCAAGLQYNRSADRVPVGAVYWGQGTQVTVSSGGGGSGGGGSGGGGSGGGGSGGGGSGGGGSGGGGSEVQLVESGGGSVQAGDSLRLSCAASGRTFGSIRVGWFRQTPGKEREFVAAINRNDGTTYYADSVKGRFTISRDNAKNTVYMQMASLKPEDTAVYYCAAGLQYNRSADRVPVGAVYWGQGTQVTVSS
notes: three VHH units in one chain joined by GlySer linkers; not shown: CMYC-HIS6 tag
IC50, cell survival, A549 [2]: ≥ 20 nM
IC50, cell survival, ARPE-19 [2]: ≥ 20 nM
IC50, cell survival, H226 [2]: 0.02 nM
IC50, cell survival, H2052 [2]: 0.006 nM
IC50, cell survival, H2122 [2]: 0.002 nM
IC50, cell survival, Huvec [2]: ≥ 20 nM
IC50, cell survival, IMR-90 [2]: ≥ 20 nM
IC50, cell survival, Jurkat [2]: ≥ 20 nM
IC50, cell survival, M30 [2]: ≥ 20 nM
IC50, cell survival, MiaPaCa-2 [2]: 0.023 nM
IC50, cell survival, Molt4 [2]: ≥ 20 nM
IC50, cell survival, Panc-1 [2]: ≥ 20 nM
IC50, cell survival, Colo205 [14]: 0.0379 nM
